We go through one substance from patent US20160272706A1.

Experiment [1] has as its target cynomolgus monkey FcRn (cynomolgus monkey) (UniProt Q8SPV9). As to the kind of experiment: SPR (BIAcore 3000), IgG immobilised on CM5, FcRn injected at pH 6, steady-state 1:1 fit. In general terms: SPR reads the build-up and loss of mass on a sensor chip optically.
Experiment [2] concerns the target human FcRn protein (human) (UniProt P55899). The description is as above.
Experiment [3] addresses cynomolgus monkey FcRn (cynomolgus monkey) (UniProt Q8SPV9). Kind of experiment: SPR (BIAcore 3000), IgG immobilised on CM5, FcRn injected; binding at pH 7.4 as a percentage of that at pH 6.
Experiment [4] addresses human FcRn protein (human) (UniProt P55899). The description is as above.

By Kd is commonly meant the constant that tells how readily two partners part at equilibrium.

cynomolgus monkey FcRn (cynomolgus monkey), sequence (Q8SPV9 24-290 limits assumed, chain 1 of 2): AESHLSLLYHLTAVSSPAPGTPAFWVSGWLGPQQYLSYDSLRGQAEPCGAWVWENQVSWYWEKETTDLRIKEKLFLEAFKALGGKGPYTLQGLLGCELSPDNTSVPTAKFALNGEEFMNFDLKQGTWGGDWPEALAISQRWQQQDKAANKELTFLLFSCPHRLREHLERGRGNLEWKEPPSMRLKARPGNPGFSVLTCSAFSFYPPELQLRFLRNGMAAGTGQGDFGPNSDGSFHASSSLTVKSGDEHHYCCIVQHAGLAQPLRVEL
cynomolgus monkey FcRn (cynomolgus monkey), sequence (Q8SPW0 21-119 limits assumed, chain 2 of 2, further chain): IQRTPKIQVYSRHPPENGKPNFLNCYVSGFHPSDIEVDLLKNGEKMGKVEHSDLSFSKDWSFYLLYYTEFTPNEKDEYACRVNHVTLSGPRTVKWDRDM
human FcRn protein (human), sequence (P55899 24-290 limits assumed, chain 1 of 2): as the sequence (Q8SPV9 24-290 limits assumed, chain 1 of 2) above, with D39N, Q44E, S99G, G189S, N190S, M217L counted along it
human FcRn protein (human), sequence (P61769 21-119 limits assumed, chain 2 of 2, further chain): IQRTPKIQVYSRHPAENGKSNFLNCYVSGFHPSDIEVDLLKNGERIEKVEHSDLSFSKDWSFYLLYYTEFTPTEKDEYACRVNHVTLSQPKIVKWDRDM

As for NIP228 (antibody), the Kd in experiment [1] is 1860 nM; in experiment [2] it was 2040 nM. The pH7.4/pH6 in experiment [3] and in experiment [4] was 1% in each case.
